According to US20100074892A1 (US Dept. of Health and Human Services, published 2010):

Molecular target: recombinant anthrax protective antigen (PA) (Bacillus anthracis, UniProt P13423 30-764)
Assay: SPR (Biacore 3000), antibody immobilized on CM3, PA in solution

Sequence of recombinant anthrax protective antigen (PA) (P13423 30-764 limits assumed): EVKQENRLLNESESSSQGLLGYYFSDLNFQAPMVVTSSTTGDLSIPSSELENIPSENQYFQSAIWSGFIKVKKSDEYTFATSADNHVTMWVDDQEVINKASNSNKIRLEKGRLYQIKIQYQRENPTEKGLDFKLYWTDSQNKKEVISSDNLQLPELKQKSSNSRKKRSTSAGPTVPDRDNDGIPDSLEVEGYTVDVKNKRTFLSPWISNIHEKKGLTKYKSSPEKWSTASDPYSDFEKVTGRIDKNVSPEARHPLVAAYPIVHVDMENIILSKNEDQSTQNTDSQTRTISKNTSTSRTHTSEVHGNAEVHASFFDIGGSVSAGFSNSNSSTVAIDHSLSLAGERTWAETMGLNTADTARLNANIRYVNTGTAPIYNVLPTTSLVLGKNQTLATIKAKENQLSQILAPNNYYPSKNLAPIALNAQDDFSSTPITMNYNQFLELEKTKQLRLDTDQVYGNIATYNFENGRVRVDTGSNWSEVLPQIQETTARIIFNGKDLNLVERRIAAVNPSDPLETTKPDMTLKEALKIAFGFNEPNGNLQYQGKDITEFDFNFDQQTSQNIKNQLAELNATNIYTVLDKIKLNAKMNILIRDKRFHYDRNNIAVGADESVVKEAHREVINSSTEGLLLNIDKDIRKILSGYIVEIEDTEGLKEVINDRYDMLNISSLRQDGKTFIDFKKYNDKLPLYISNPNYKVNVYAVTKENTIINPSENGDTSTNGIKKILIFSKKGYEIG

B1: anti-PA W1 full-length IgG1 (antibody, V domains shown)
VH: EVQLLETGGGLVQPGGSLRLSCAASGFTLRSYHMSWVRRAPGKGLEWVSVIYDGGSTSYADSVKGRFTISRDNSKNTLYLQMTSLRAEDTAVYYCARSGRPLQNYYYMDVWGKGTTVTVSS
VL: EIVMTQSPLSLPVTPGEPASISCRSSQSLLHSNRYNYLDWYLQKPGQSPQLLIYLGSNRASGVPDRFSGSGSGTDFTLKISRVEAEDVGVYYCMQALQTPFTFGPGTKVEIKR
Work on B1 yielded a Kd of 39.7 pM, a koff of 1.15e-05 s⁻¹ and a kon of 290000 M⁻¹ s⁻¹.
